Data published in patent US20230068663A1 (University of Texas, published 2023).

T1: LAIR1 on reporter cells (UniProt Q6GTX8 22-165, limits assumed)
T1 sequence (looked up): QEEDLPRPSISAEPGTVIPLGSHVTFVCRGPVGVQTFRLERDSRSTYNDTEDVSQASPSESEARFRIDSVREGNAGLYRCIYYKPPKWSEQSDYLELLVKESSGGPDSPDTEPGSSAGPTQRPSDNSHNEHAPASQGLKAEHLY


Key:
[1] = biological target: T2, LILRB2 (antigen in solution, Octet RED 96) (UniProt Q8N423 22-460, limits assumed); experiment: BLI (Octet RED 96), antibody on protein A biosensor, LILRB2 in solution
T2 construct: also called LILRB2 solution
Protocol: Affinity measurement of blocking antibodies. Affinities of the 5 blocking antibodies were measured on Octet RED 96 system.

[2] = biological target: T3, endogenous LILRB2 on human myeloid cells / primary monocytes (human, UniProt Q8N423 22-597); experiment: flow cytometry, CD14+CD16- monocytes, AF647-conjugated antibody
T3 construct: whole, on cells; also called cells expressing endogenous LILRB2
Protocol: FIG. 32. Binding of LILRB2 antibodies on CD14⁺CD16-monocytes isolated from human PBMC from healthy donors. Fifty thousand cells were incubated for 30 minutes at 4° C. with a dilution series (40-0.0006 μg/mL) of LILRB2 antibodies directly conjugated to AF647 in a final volume of 100 μL. Data shown is averaged geometric mean of fluorescence intensity from duplicate samples acquired in a flow cytometer (BD FACS Celesta) from one donor and is representative of 2 experiments with cells isolated from different donors.

LILRB3 = biological target: T4, LILRB3; experiment: flow cytometry, reporter cells
T4 construct: also called LILRB3 reporter cells; not shown: transmembrane/intracellular domains of PILRb, the display part of the chimeric reporter receptor
Protocol: (§1) FIG. 29. Binding of LILRB2 antibodies on reporter cell line expressing ectodomain of LILR family proteins on cell surface. Bound antibodies were detected with anti-human Fc-specific secondary antibody (2nd Ab) conjugated to AF647. […] All incubations were performed for 30 minutes at 4° C. Data shown is mean fluorescence intensity after sample acquisition in flow cytometer.

LILRA2 = biological target: T5, LILRA2; experiment: flow cytometry, reporter cells
T5 construct: also called LILRA2 reporter cells; not shown: transmembrane/intracellular domains of PILRb, the display part of the chimeric reporter receptor
Protocol: as §1

LILRB4 = biological target: T6, LILRB4; experiment: flow cytometry, reporter cells
T6 construct: also called LILRB4 reporter cells; not shown: transmembrane/intracellular domains of PILRb, the display part of the chimeric reporter receptor
Protocol: as §1

LILRA3 = biological target: T7, LILRA3; experiment: flow cytometry, reporter cells
T7 construct: also called LILRA3 reporter cells; not shown: transmembrane/intracellular domains of PILRb, the display part of the chimeric reporter receptor
Protocol: as §1

[3] = biological target: T8, LILRA1 on reporter cells (extracellular domain) (UniProt O75019 17-461, limits assumed); experiment: flow cytometry, reporter cells
T8 construct: extracellular domain
Protocol: as §1

LILRA4 = biological target: T9, LILRA4; experiment: flow cytometry, reporter cells
T9 construct: also called LILRA4 reporter cells
Protocol: as §1

LILRB5 = biological target: T10, LILRB5; experiment: flow cytometry, reporter cells
T10 construct: also called LILRB5 reporter cells; not shown: transmembrane/intracellular domains of PILRb, the display part of the chimeric reporter receptor
Protocol: as §1

LILRA6 = biological target: T11, LILRA6; experiment: flow cytometry, reporter cells
T11 construct: also called LILRA6 reporter cells
Protocol: as §1

[4] = biological target: T12, LILRB2 chimeric receptor on LILRB2 reporter cells (extracellular domain of LILRB2 fused with … (UniProt Q8N423 22-460)); experiment: flow cytometry, reporter cells
T12 construct: extracellular domain;domain: transmembrane/intracellular domains; associates with DAP12; also called LILRB2-expressing reporter cells
Protocol: as §1

LAIR1 on reporter cells = biological target: T1, LAIR1 on reporter cells; experiment: flow cytometry, reporter cells
Protocol: as §1

LILRA5 = biological target: T13, LILRA5; experiment: flow cytometry, reporter cells
T13 construct: also called LILRA5 reporter cells
Protocol: as §1

LILRB1 = biological target: T14, LILRB1; experiment: flow cytometry, reporter cells
T14 construct: also called LILRB1 reporter cells; not shown: transmembrane/intracellular domains of PILRb, the display part of the chimeric reporter receptor
Protocol: as §1

[5] = biological target: T12, LILRB2 chimeric receptor on LILRB2 …; experiment: cell-based or functional assay
[6] = biological target: T15, full length human LILRB2 stably expressed on HEK293 cells (human, UniProt Q8N423 22-597); experiment: competition flow cytometry, inhibition of HLA-G-His binding to HEK293 cells expressing LILRB2
T15 construct: whole, on cells; also called HEK293_LILRB2
Protocol: FIG. 33. […] All incubations were performed for 30 minutes at 4° C. Data shown is averaged geometric mean of fluorescence intensity ± standard error of the mean (s.e.m.) from duplicate samples acquired in a flow cytometer (BD FACS Celesta).

[7] = biological target: T15, full length human LILRB2 stably …; experiment: competition flow cytometry, inhibition of SEMA4A-hFc-AF647 binding to HEK293_LILRB2 cells
Protocol: FIG. 34. […] Incubation was performed for 30 minutes at 4° C. Data shown is averaged geometric mean of fluorescence intensity ± standard error of the mean (s.e.m.) from duplicate samples acquired in a flow cytometer (BD FACS Celesta).

T7 sequence (chain, as listed by the source limits assumed): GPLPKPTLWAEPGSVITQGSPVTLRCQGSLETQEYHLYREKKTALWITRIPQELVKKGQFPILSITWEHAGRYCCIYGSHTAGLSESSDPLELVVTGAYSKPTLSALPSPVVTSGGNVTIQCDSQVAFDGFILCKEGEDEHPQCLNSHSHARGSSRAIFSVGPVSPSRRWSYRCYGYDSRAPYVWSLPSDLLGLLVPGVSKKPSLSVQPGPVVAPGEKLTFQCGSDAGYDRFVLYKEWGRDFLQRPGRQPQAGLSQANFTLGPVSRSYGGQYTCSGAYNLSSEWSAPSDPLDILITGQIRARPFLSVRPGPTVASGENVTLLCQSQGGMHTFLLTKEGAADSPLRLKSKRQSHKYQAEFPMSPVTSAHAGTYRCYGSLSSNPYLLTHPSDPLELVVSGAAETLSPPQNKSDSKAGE
T5 sequence (chain, as listed by the source limits assumed): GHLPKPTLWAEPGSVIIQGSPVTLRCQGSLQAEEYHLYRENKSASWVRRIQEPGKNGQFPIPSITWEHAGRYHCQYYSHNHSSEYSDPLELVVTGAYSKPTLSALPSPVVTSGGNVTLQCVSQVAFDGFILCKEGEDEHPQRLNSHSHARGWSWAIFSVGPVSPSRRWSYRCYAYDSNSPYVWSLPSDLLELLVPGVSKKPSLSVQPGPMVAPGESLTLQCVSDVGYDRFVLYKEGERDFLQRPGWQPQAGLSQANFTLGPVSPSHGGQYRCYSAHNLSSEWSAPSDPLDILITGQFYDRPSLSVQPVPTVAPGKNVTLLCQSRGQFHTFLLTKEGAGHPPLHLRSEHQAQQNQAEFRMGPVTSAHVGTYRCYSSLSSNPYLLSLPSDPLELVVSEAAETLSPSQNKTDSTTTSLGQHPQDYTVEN
T11 sequence (chain, as listed by the source limits assumed): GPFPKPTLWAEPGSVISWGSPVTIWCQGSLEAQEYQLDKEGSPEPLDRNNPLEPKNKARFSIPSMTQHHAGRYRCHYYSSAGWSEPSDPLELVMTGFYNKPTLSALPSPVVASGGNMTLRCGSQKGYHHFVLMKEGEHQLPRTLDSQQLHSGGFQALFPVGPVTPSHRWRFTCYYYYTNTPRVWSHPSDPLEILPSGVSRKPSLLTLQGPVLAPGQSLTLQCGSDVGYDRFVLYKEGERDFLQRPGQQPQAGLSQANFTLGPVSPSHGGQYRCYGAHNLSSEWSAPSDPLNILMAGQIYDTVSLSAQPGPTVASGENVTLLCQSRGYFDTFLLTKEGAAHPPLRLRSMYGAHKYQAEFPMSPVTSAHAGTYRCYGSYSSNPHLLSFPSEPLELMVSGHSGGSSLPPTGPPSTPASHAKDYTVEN
T9 sequence (chain, as listed by the source limits assumed): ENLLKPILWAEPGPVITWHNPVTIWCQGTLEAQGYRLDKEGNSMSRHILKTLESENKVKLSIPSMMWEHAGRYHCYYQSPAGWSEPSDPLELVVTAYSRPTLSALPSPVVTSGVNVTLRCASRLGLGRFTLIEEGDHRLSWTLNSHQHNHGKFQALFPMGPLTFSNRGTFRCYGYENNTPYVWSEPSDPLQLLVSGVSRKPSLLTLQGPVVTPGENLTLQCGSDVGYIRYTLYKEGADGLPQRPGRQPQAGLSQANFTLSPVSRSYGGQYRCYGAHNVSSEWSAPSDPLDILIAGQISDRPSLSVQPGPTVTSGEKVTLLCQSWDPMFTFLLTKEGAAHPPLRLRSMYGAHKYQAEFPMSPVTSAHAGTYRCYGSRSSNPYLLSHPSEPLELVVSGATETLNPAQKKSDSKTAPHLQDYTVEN
T14 sequence (chain, as listed by the source limits assumed): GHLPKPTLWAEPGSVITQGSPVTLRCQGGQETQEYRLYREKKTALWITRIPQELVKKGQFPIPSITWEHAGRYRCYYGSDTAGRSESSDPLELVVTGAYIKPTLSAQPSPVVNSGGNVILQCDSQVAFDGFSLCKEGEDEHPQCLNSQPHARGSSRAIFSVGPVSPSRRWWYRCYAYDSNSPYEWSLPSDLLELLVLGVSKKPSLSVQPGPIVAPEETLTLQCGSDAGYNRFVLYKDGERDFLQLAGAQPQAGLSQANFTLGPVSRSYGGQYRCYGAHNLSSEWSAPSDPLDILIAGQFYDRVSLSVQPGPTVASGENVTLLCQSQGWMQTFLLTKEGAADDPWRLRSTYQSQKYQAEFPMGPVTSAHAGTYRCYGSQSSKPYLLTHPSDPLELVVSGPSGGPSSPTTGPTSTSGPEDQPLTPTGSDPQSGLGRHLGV
T13 sequence (chain, as listed by the source limits assumed): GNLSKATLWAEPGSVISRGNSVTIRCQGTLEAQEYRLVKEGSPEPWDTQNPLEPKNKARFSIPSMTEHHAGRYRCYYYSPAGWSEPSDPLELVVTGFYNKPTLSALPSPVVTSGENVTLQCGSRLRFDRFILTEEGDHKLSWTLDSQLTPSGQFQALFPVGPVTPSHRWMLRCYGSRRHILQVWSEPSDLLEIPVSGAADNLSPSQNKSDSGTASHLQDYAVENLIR
T8 sequence (O75019 17-461 limits assumed): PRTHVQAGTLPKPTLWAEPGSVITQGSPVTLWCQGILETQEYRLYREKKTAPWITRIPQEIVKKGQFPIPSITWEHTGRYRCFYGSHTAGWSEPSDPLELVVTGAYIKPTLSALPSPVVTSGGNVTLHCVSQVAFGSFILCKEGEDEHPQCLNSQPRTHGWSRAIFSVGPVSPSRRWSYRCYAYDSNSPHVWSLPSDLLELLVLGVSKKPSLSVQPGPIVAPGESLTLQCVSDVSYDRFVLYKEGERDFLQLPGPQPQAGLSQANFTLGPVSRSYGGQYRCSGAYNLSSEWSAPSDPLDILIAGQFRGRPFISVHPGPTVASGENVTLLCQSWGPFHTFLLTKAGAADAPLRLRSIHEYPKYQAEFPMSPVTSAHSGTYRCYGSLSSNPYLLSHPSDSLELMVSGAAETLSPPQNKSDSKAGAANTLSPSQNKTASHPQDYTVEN
T10 sequence (chain, as listed by the source limits assumed): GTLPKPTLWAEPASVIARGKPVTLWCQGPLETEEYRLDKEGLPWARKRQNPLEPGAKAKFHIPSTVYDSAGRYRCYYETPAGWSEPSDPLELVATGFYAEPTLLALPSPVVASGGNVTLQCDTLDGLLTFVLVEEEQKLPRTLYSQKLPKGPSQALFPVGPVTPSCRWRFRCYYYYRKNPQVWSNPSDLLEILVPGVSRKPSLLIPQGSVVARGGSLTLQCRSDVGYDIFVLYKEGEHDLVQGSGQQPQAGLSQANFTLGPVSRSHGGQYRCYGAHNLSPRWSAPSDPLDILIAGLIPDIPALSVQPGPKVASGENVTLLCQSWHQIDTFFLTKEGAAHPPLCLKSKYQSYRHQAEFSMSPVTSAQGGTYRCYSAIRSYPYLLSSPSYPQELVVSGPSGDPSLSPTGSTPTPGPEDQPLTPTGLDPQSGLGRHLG

Row | Binder | Kd [1] | koff [1] | kon [1] | EC50 [2] | MFI (LILRB3) | binding result (LILRB3) | MFI (LILRA2) | binding result (LILRA2) | MFI (LILRB4) | binding result (LILRB4) | MFI (LILRA3) | binding result (LILRA3) | MFI [3] | binding result [3] | MFI (LILRA4) | binding result (LILRA4) | MFI (LILRB5) | binding result (LILRB5) | MFI (LILRA6) | binding result (LILRA6) | also measured
1 | B2-17 (antibody, V domains shown, also called B2-17_HC; B2-17_LC) VH: EVQLLDSGPRLLKPSETLSLTCGVSGVSTSSTHWWSWVRQTPGKGLEWIGEILHNGNTNSNPSLKSRVSMSIDKSRNQFSLQLKSMTAADTAVYYCASASPNWGASGAFDAWAQGTMVTVSS VL: QSVLTQPPSASATPGQRVTISCSGSSSNIGSNPVNWYQQVPGMAPELVMYSDNQRPSGVPDRFSGSNSGTSASLAISGLQSEDEADYYCSTWDDSLNGLVFGTGTKVTVL | 35.9 nM | 0.0121 s⁻¹ | 338000 M⁻¹ s⁻¹ | > 10 µg/mL | 10 | no binding | 10 | no binding | 13 | no binding | 10 | no binding | 11 | no binding | 10 | no binding | 10 | no binding | 11 | no binding | MFI [4]: 1100; MFI (LAIR1 on reporter cells): 23; binding result (LAIR1 on reporter cells): no binding; MFI (LILRA5): 10; binding result (LILRA5): no binding; MFI (LILRB1): 9; binding result (LILRB1): no binding; Blocking potency (IC50) of GFP expression in LILRB2 reporter cells induced by coated ANGPTL2 [5]: 0.405 µg/mL; IC50 [6]: 0.209 µg/mL; IC50 [7]: 0.657 µg/mL
2 | B2-15 (antibody, V domains shown, also called B-15; B2-15_HC) VH: EVQLVQSGAEVKKSGASVKVSCKSSGYTFTNYGISWVRQAPGQGLEWMGWISGDAGDTKFAQKFQGRVTMTTDTSTTTTYMELRSLRSDDTAVYYCARDGEYIPMFRGFDNYYGLDVWGQGTLVSVSS VL: QSVLTQPPSASATPGQRVTISCSGRNANIGSNPVNWYQQLPGTAPRLVMYSNNQRPSGVPDRFSGSKSGTSASLAISGLQSEDEADYYCEGWDDSLNGYVFGTGTKVTVL | 18.9 nM | 0.00565 s⁻¹ | 299000 M⁻¹ s⁻¹ | 0.056 µg/mL | 9 | no binding | 10 | no binding | 14 | no binding | 10 | no binding | 10 | no binding | 9 | no binding | 11 | no binding | 10 | no binding | MFI [4]: 910; MFI (LAIR1 on reporter cells): 22; binding result (LAIR1 on reporter cells): no binding; MFI (LILRA5): 11; binding result (LILRA5): no binding; MFI (LILRB1): 9; binding result (LILRB1): no binding; Blocking potency (IC50) of GFP expression in LILRB2 reporter cells induced by coated ANGPTL2 [5]: 0.341 µg/mL; IC50 [6]: 0.16 µg/mL; IC50 [7]: 0.482 µg/mL
3 | B2-7 (antibody, V domains shown, also called B2-7_HC; B2-7_LC) VH: EVQLVESGGGVVQPGRSLRLSCAASGFTISSYGMHWVRQAPGKGLEWVAVISYDGSNKYYADSVKGRFTISRDNSKNTLYLQMNSLRVEDTAVYYCAKDLLLRYFDWSPKYYYNGMDVWGQGTMVTVSS VL: QSVLTQPPSVSVAPGKTARITCGGNNIGSKSVHWYQQKPGQAPVLVVYDDSDRPSGIPERFSGSNSGNTATLTISRVEAGDEADYYCQVWDSSSDHPGVFGTGTKVTVL | 15.2 nM | 0.00305 s⁻¹ | 200000 M⁻¹ s⁻¹ | 0.332 µg/mL | 11 | no binding | 10 | no binding | 15 | no binding | 10 | no binding | 12 | no binding | 10 | no binding | 11 | no binding | 11 | no binding | MFI [4]: 1160; MFI (LAIR1 on reporter cells): 23; binding result (LAIR1 on reporter cells): no binding; MFI (LILRA5): 11; binding result (LILRA5): no binding; MFI (LILRB1): 10; binding result (LILRB1): no binding; Blocking potency (IC50) of GFP expression in LILRB2 reporter cells induced by coated ANGPTL2 [5]: 0.221 µg/mL; IC50 [6]: 0.507 µg/mL; IC50 [7]: 2.66 µg/mL

Now those with a lower Kd [1], led by results:

Row | Kd [1] | koff [1] | kon [1] | EC50 [2] | MFI (LILRB3) | binding result (LILRB3) | MFI (LILRA2) | binding result (LILRA2) | MFI (LILRB4) | binding result (LILRB4) | MFI (LILRA3) | binding result (LILRA3) | MFI [3] | binding result [3] | MFI (LILRA4) | binding result (LILRA4) | MFI (LILRB5) | binding result (LILRB5) | MFI (LILRA6) | binding result (LILRA6) | Binder | also measured
4 | 1.84 nM | 0.00046 s⁻¹ | 250000 M⁻¹ s⁻¹ | 0.219 µg/mL | 9 | no binding | 10 | no binding | 14 | no binding | 10 | no binding | 11 | no binding | 10 | no binding | 11 | no binding | 11 | no binding | B2-19 (antibody, V domains shown, also called B2-19_HC; B2-19_LC) VH: not shown VL: QPVLTQPPSVSEAPRQRVTISCSGSSSNIGNNVVNWYQQLPGKAPKLLIYYDDLLPSGVSDRFSGSKSGTSASLAISGLQSEDEADYYCATWDDSLNGPVFGGGTKLTVL | MFI [4]: 1280; MFI (LAIR1 on reporter cells): 22; binding result (LAIR1 on reporter cells): no binding; MFI (LILRA5): 11; binding result (LILRA5): no binding; MFI (LILRB1): 10; binding result (LILRB1): no binding; Blocking potency (IC50) of GFP expression in LILRB2 reporter cells induced by coated ANGPTL2 [5]: 0.0485 µg/mL; IC50 [6]: 0.583 µg/mL; IC50 [7]: 2.12 µg/mL
5 | 7.45 nM | 0.0009 s⁻¹ | 121000 M⁻¹ s⁻¹ | 0.547 µg/mL | 10 | no binding | 10 | no binding | 14 | no binding | 10 | no binding | 12 | no binding | 10 | no binding | 11 | no binding | 12 | no binding | B2-16 (antibody, V domains shown, also called B2-16_HC; B2-16_LC) VH: QVQLVQSGAEVKKPGSSVKVSCKASGGTFSSYAISWVRQAPGQGLEWMGGIIPIFGTANYAQKFQGRVTITADESTSTAYMELSSLRSEDTAVYYCASGIIPDNPYGMDVWGQGTMVSVSS VL: DIVMTQSPLSLPVTLGQPASISCTSSQSLVYSDGNTYLNWFHQRPGQSPRRLFYKVSNRASGVPDRFSGSGSGTDFTLKISRVEAEDLGVYYCMQGTHWPVTFGQGTRLEIK | MFI [4]: 940; MFI (LAIR1 on reporter cells): 24; binding result (LAIR1 on reporter cells): no binding; MFI (LILRA5): 12; binding result (LILRA5): no binding; MFI (LILRB1): 10; binding result (LILRB1): no binding; Blocking potency (IC50) of GFP expression in LILRB2 reporter cells induced by coated ANGPTL2 [5]: 0.131 µg/mL; IC50 [6]: 0.915 µg/mL; IC50 [7]: 3.19 µg/mL
